Results on five molecules are retold here after US20230137139A1, “BIOSYNTHESIS OF CANNABINOIDS AND C[…]” (priority 2020, published 2023).

What all share (format): cell-based, S. cerevisiae
For test [1], the system named is CBCA, THCA, and CBDA production; CBGA residual substrate. As to the kind of experiment: In vivo TS activity assay, Example 3 metagenomic CBCAS screen, cultures fed olivetolic acid. As to conditions: for Mean CBCA / Mean CBDA / Mean THCA: metagenomic CBCAS candidates in S. cerevisiae, secondary screen, quadruplicate; for Mean CBCA / Mean CBDA / Mean THCA / % CBCA / % CBDA / % THCA: fed 1 mM olivetolic acid; for Average CBGA residual substrate: olivetolic acid fed (Table 12); for % CBCA / % CBDA / % THCA: share of terminal cannabinoid product profile. The method, then: (§1) An assay to detect TS activity was conducted as follows: each thawed glycerol stock of candidate CBCAS transformants was stamped into a well of YEP+4% dextrose media. Samples were incubated at 30° C. in a shaking incubator for 2 days. A portion of each of the resulting cultures was stamped into a well of YEP+4% galactose+1 mM olivetolic acid (FIG. 1 Structure 6a). Samples were incubated at 20° C. and shaken in a shaking incubator for 4 days. Every 24 hours during those 4 days, 2% galactose and 1 mM olivetolic acid were spiked into the cultures. Sodium citrate buffer adjusted to pH 5.5 was added to each well at a final concentration of 100 mM. Samples were incubated at 20° C. and shaken in a shaking incubator for 2 days. A portion of each of the resulting production cultures was stamped into a well of phosphate buffered saline (PBS). Optical measurements were taken on a plate reader, with absorbance measured at 600 nm and fluorescence at 528 nm with 485 nm excitation. Samples were incubated at 30° C. in a shaking incubator for 2 days. 100% methanol was stamped into the production cultures in half-height deepwell plates. Plates were heat sealed and frozen. Samples were then thawed for 30 min and spun down at 4° C. A portion of the supernatant was stamped into half-area 96 well plates. CBCA, THCA, and CBDA production in the samples was quantified via liquid chromatography-mass spectrometry (LC-MS).
(§2) To explore whether other putative CBCASs may exist in the broader metagenome, a library of 1072 candidate CBCAS genes was designed using the A. niger CBCAS enzyme identified in Example 1 as a reference. Protein sequences were recoded in silico for expression in S. cerevisiae and synthesized in the integrative yeast expression vector shown in FIG. 5. Each candidate enzyme expression construct was transformed into an S. cerevisiae CEN.PK strain that also expressed a prenyltransferase enzyme capable of catalyzing reaction R^4 in FIG. 2. Strain t616313, expressing GFP, was included in the library screen as a negative control for enzyme activity. Strain t807925, expressing the A. niger enzyme identified in Example 1, was included in the library screen as a positive control for enzyme activity. All candidate enzymes in the library, as well as the enzyme expressed by positive control strain t807925, included an N-terminal MFalpha2 signal peptide (SEQ ID NO: 16) (with a methionine residue added at the N-terminus of the MFalpha2 signal peptide) and a C-terminal HDEL signal peptide (SEQ ID NO: 17).
The library of candidate CBCAS enzymes was assayed for activity in a primary high-throughput screen using the assay described in Example 1. Production of CBCA, THCA, and/or CBDA in the samples was quantified via LC-MS.
(§3) Based on results of the primary screen, 70 strains were carried forward to a secondary screen to confirm activity observed in the primary screen. The experimental protocol for the secondary screen was identical to the primary screen, except that additional technical replicates were included per strain, and replicate production cultures for each strain were separately fed 1 mM olivetolic acid or 1 mM divaric acid. All strains were screened in quadruplicate (FIGS. 10A-10C, Tables 10 and 11).

In test [2] the test system is CBCVA, THCVA, and CBDVA production. Nature of the test: In vivo TS activity assay, Example 2 protein engineering of A. niger CBCAS, cultures fed divaric acid. As to conditions: fed divaric acid; for Mean CBCVA / Mean CBDVA / Mean THCVA: S. cerevisiae strains expressing A. niger CBCAS mutants, secondary screen; for % CBCVA / % CBDVA / % THCVA: share of terminal cannabinoid product profile. Summed up: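 S. cerevisiae expressing A. niger CBCAS point mutants (N-terminal MFalpha2, C-terminal HDEL signal peptides) grown 2 days at 30 °C in YEP+4% dextrose, then 4 days at 20 °C in YEP+4% galactose with 1 mM divaric acid plus daily 2% galactose and 1 mM divaric acid spikes, then 2 days with 100 mM sodium citrate pH 5.5. Methanol extracts analysed by LC-MS; quadruplicate.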

Test [3] relates to CBCA, THCA, and CBDA production. As to the kind of experiment: In vivo TS activity assay, Example 2 protein engineering of A. niger CBCAS, cultures fed olivetolic acid. As to conditions: for Mean CBCA / Mean CBDA / Mean THCA: secondary screen, olivetolic acid (Table 8); for % CBCA / % CBDA / % THCA: share of terminal cannabinoid product profile. Summed up:
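S. cerevisiae expressing A. niger CBCAS mutants (MFalpha2/HDEL-tagged) grown 2 days at 30 °C in YEP+4% dextrose, then 4 days at 20 °C in YEP+4% galactose with 1 mM olivetolic acid, spiked every 24 h with 2% galactose and 1 mM olivetolic acid. 100 mM citrate pH 5.5 added, methanol-extracted; CBCA, THCA, CBDA quantified by LC-MS.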

Test [4] concerns CBCVA, THCVA, and CBDVA production; CBGVA residual substrate. As to the kind of experiment: In vivo TS activity assay, Example 3 metagenomic CBCAS screen, cultures fed divaric acid. As to conditions: for Average CBGVA residual substrate: divaric acid fed (Table 12); for Mean CBCVA / Mean CBDVA / Mean THCVA: secondary screen, S. cerevisiae, quadruplicate, LC-MS; for Mean CBCVA / Mean CBDVA / Mean THCVA / % CBCVA / % CBDVA / % THCVA: cultures fed 1 mM divaric acid; for % CBCVA / % CBDVA / % THCVA: share of terminal cannabinoid products. As to the method:
as §1, §2, §3

B1: Strain t808200: library TS SEQ ID NO: 164, UniProt A0A3F3PQ52, Aspergillus welwitschiae (protein)
chain: MGNTTSIAGRDCLISALGGNSALAAFPNELLWTADVHEYNLNLPVTPAAITYPETAEQIAGIVKCASDYDYKVQARSGGHSFGNYGLGGADGAVVVDMKHFTQFSMDDETYEAVIGPGTTLNDVDIELYNNGKRAMAHGVCPTIKTGGHFTIGGLGPTARQWGLALDHVEEVEVVLANSSIVRASNTQNQDVFFAVKGAAANFGIVTEFKVRTEPAPGLAVQYSYTFNLGSTAEKAQFVKDWQSFISAKNLTRQFYNNMVIFDGDIILEGLFFGSKEQYDALGLEDHFAPKNPGNILVLTDWLGMVGHALEDTILKLVGNTPTWFYAKSLGFRQDTLIPSAGIDEFFEYIANHTAGTPAWFVTLSLEGGAINDIAEDATAYAHRDVLFWVQLFMVNPLGPISDTTYEFTDGLYDVLARAVPESVGHAYLGCPDPRMEDAQQKYWRTNLPRLQELKEELDPKNTFHHPQGVMPA
As to B1, the “percentage of CBCA in product profile compared with the A. niger positive control” value in test [1] is on record as “higher percentage of CBCA”.

B2: t865772 (protein)
chain: MGNTTSIAGRDCLISALGGNSALAVFPNELLWTAAVHEYNLNLPVTPAAITYPETAAQIAGVVKCASDYDYKVQARSGGHSFGNYGLGGADGAVVVDMKHFTQFSMDDETYEAVIGPGTTLNDVDIELYNNGKRAMAHGVCPTIKTGGHFTIGGLGPTARQWGLALDHVEEVEVVLANSSIVRASNTQNQDVFFAVKGAAANFGIVTEFKVRTEPAPGLAVQYSYTFNLGSTAEKAQFVKDWQSFISAKNLTRQFYNNMVIFDGDIILEGLFFGSKEQYDALGLEDHFAPKNPGNILVLTDWLGMVGHALEDTILKLVGNTPTWFYAKSLGFRQDTLIPSAGIDEFFEYIANHTAGTPAWFVTLSLEGGAINDVAEDATAYAHRDVLFWVQLFMVNPVGPISDTTYEFTDGLYDVLARAVPESVGHAYLGCPDPRMEDAQQKYWRTNLPRLQELKEELDPKNTFHHPQGVMPA
modifications: expressed in S. cerevisiae strain
On to B2, for which, in test [2], the “Mean CBCVA” value worked out at 1441.55 µg/L, the “Mean CBDVA” value was found to be 0.00 µg/L, the “Mean THCVA” value was found to be 702.24 µg/L and the “% CBCVA” value was found to be 67.24%. Besides, in test [2], the “% CBDVA” value was determined as 0.00% and the “% THCVA” value stood at 32.76%. Also, in test [3], the “Mean CBCA” value was 9992.22 µg/L, the “Mean CBDA” value was 3051.02 µg/L, the “Mean THCA” value worked out at 622.72 µg/L and the “% CBCA” value is listed as 73.12%. Also, in test [3], the “% CBDA” value is 22.33% and the “% THCA” value worked out at 4.56%.

B3: t865740 (protein)
chain: MGNTTSIAGRDCLISALGGNSALAVFPNELLWTADVHEYNLNLPVTPAAITYPETAAQIAGVVKCASDYDYKVQARSGGHSFGNYGLGGADGAVVVDMKHFTQFSMDDETYEAVIGPGTTLEDVDIELYNNGKRAMAHGVCPTIKTGGHFTIGGLGPTARQWGLALDHVEEVEVVLANSSIVRASNTQNQDVFFAVKGAAANFGIVTEFKVRTEPAPGLAVQYSYTFNLGSTAEKAQFVKDWQSFISAKNLTRQFYNNMVIFDGDIILEGLFFGSKEQYDALGLEDHFAPKNPGNILVLTDWLGMVGHALEDTILKLVGNTPTWFYAKSLGFRQDTLIPSAGIDEFFEYIANHTAGTPAWFVTLSLEGGAINDVAEDATAYAHRDVLFWVQLFMVNPVGPISDTTYEFTDGLYDVLARAVPESVGHAYLGCPDPRMEDAQQKYWRTNLPRLQELKEELDPKNTFHHPQGVMPA
With B3, in test [2], the “Mean CBCVA” value came out at 1153.83 µg/L, the “Mean CBDVA” value is 0.00 µg/L, the “Mean THCVA” value came to 469.98 µg/L and the “% CBCVA” value worked out at 71.06%. In test [2], the “% CBDVA” value stood at 0.00% and the “% THCVA” value is reported as 28.94%. Further, in test [3], the “Mean CBCA” value was 11837.41 µg/L, the “Mean CBDA” value was determined as 3671.56 µg/L, the “Mean THCA” value worked out at 685.53 µg/L and the “% CBCA” value amounted to 73.10%. Moreover, in test [3], the “% CBDA” value is 22.67% and the “% THCA” value was 4.23%.

B4: t808237 (protein)
chain: MGNTTSIAGRDCLVSALGGNAGLVAFQDQLLYQTTAVHEYNLNIPVTPAAVTYPETAEQIAAVVKCASEYDYKVQARSGGHSFGNYGLGGADGAVVVDMKHFSQFSMDDQTYEAVIGPGTTLGDVDTELYNNGKRAMAHGICPTISTGGHFTMGGLGPTARQWGLALDHVEEVEVVLANSSIVRASNTQNQEVFFAVKGAAASFGIVTEFKVRTQPAPGLAVQYSYTFNIGSSAEKAQFVKDWQSFISAKNLTRQFYTNMVIFDGDIILEGLFFGSQEQYEALGLEDRFVPKNPGNILVLTDWLGMVGHALEDTILRLVGNTPTWFYAKSLGFTPDTLIPASGIDEFFDYIENHKAGTLTWFVTLSLEGGAINDVPEDATAYGHRDVLFWVQIFMASPTGPVSSTTYDFADGLYNVLTKAVPESEGHAYLGCPDPKMADAQQKYWRQNLPRLEELKATLDPKDTFHNPQGILPA
Consider B4, for which, in test [1], the “Mean CBCA” value amounted to 12281.96 µg/L, the “Mean CBDA” value was found to be 37.34 µg/L, the “Mean THCA” value was 760.03 µg/L and the “Average CBGA residual substrate” value was 69.20 µg/L. In addition, in test [1], the “% CBCA” value is recorded as 93.90%, the “% CBDA” value was 0.29% and the “% THCA” value came out at 5.81%. Besides, in test [4], the “Average CBGVA residual substrate” value is 0.00 µg/L, the “Mean CBCVA” value came to 3599.07 µg/L, the “Mean CBDVA” value stood at 0.00 µg/L and the “Mean THCVA” value was 1273.10 µg/L. Besides, in test [4], the “% CBCVA” value is recorded as 73.87%, the “% CBDVA” value came to 0.00% and the “% THCVA” value stood at 26.13%.

B5: t808232 (protein)
chain: MGNTTSIAAGRDCLLSAVGGNHAHVAFQDQLLYQATAVEPYNLNIPVTPAAVTYPQSADEVAAVVKCAADYGYKVQARSGGHSFGNYGLGGEDGAIVVDMKHFDQFSMDESTYTATIGPGITLGDLDTALYNAGHRAMAHGICPTIRTGGHLTIGGLGPTARQWGLALDHVEEVEVVLANSSIVRASDTQNQEILFAVKGAAASFGIVTEFKVRTEEAPGLAVQYSFTFNLGTAAEKAKLVKDWQAFIAQEDLTWKFYSNMNIIDGQIILEGIYFGSKAEYDALGLEEKFPTSEPGTVLVLTDWLGMVGHGLEDVILRLVGNAPTWFYAKSLGFAPRALIPDSAIDDFFEYIHKNNPGTVSWFVTLSLEGGAINKVPEDATAYGHRDVLFWVQIFMINPLGPVSQTIYDFADGLYDVLAKAVPESAGHAYLGCPDPRMPNAQQAYWRNNLPRLEELKGDLDPKDIFHNPQGVMVVS
In the case of B5, in test [1], the “Mean CBCA” value came to 20281.01 µg/L, the “Mean CBDA” value is 64.49 µg/L, the “Mean THCA” value came out at 1367.99 µg/L and the “Average CBGA residual substrate” value was 0.00 µg/L. In addition, in test [1], the “% CBCA” value came out at 93.40%, the “% CBDA” value was 0.30% and the “% THCA” value was 6.30%. In test [4], the “Average CBGVA residual substrate” value amounted to 0.00 µg/L, the “Mean CBCVA” value was 2379.23 µg/L, the “Mean CBDVA” value stood at 0.00 µg/L and the “Mean THCVA” value was 1626.74 µg/L. In test [4], the “% CBCVA” value stood at 59.39%, the “% CBDVA” value is 0.00% and the “% THCVA” value worked out at 40.61%.
